No end group written: not given here.
How the values were obtained:
[1] = biological target: T1, FAP endopeptidase activity in the plasma (Mus musculus, UniProt P97321); experiment: FRET-quench assay: probe cleavage in mouse plasma (Fap WT, heterozygous, KO); assay type: biochemical, mice
T1 construct: the extracellular domain encoding the active enzyme can be shed from the cell surface; from tissue; host or cells: mouse plasma (C57BL/6 background; Fap +/+, +/-, -/-)
T1 sequence (P97321 24-761 limits assumed): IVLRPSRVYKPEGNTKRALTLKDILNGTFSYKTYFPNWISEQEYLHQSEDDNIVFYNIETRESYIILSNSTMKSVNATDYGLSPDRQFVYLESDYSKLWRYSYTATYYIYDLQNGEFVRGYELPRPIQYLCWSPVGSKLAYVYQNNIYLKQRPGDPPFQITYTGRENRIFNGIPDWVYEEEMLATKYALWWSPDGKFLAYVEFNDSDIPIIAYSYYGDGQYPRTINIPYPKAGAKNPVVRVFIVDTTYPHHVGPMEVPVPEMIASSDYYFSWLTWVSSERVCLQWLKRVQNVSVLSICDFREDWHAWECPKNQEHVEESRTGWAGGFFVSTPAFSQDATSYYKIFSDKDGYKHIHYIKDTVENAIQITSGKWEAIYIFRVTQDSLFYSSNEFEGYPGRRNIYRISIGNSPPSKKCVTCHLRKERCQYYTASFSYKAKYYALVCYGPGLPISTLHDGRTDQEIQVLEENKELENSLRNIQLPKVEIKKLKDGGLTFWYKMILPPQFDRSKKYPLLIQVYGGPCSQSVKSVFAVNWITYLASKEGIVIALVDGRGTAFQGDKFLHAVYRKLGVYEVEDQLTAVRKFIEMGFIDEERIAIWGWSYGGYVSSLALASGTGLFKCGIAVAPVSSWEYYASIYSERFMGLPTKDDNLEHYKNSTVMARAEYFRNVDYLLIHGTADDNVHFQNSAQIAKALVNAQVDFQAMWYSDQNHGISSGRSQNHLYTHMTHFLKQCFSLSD
Method: Mouse plasma samples were prepared in K3-EDTA MiniCollect tubes (Greiner Bio-One, 450475) and frozen immediately at −80° C. prior to analysis. Human serum samples were obtained from healthy donors or purchased from Discovery Life Sciences, Inc. (Los Osos, Calif.).
(§1) Peptides of the region flanking the C-terminal human FGF21 cleavage site (VGPSQG) or a variant with D-alanine at P2 (VaPSQG) were synthesized (Anaspec, Inc.), containing an amine-terminal donor (HyLite Fluor 488 or Cy5.5 for aP NIRF) and a dark quencher-acceptor (QXL 520 or QSY21 for aP NIRF) conjugated to a supplementary C-terminal lysine. ANPFAP (Bioconjugate Chem 23:1704-11) and aP NIRF were synthesized by CPC Scientific (Sunnyvale, Calif.). Assays were conducted at 37° C. in 50 mM HEPES (pH 7.2), 150 mM NaCl, 1 mM EDTA, 0.1 mg/ml BSA. The excitation/emission wavelengths of cleaved peptide are 490/520 nm or 675/695 nm for ANPFAP and aP NIRF. Fluorescence was monitored on a Tecan M1000 Pro plate reader in kinetic mode. Except where indicated otherwise, measurements of serum or plasma FAP activity were performed with the peptide substrate concentration at 6 μM and a 10-fold dilution of serum or plasma in assay buffer.

recombinant human PREP = biological target: T2, recombinant human PREP (Homo sapiens, UniProt P48147); experiment: FRET-quench assay: probe cleavage by recombinant human PREP; assay type: biochemical; details: 1 nM enzyme
T2 construct: purchased R&D Systems 4308-SE
T2 sequence (P48147 1-710): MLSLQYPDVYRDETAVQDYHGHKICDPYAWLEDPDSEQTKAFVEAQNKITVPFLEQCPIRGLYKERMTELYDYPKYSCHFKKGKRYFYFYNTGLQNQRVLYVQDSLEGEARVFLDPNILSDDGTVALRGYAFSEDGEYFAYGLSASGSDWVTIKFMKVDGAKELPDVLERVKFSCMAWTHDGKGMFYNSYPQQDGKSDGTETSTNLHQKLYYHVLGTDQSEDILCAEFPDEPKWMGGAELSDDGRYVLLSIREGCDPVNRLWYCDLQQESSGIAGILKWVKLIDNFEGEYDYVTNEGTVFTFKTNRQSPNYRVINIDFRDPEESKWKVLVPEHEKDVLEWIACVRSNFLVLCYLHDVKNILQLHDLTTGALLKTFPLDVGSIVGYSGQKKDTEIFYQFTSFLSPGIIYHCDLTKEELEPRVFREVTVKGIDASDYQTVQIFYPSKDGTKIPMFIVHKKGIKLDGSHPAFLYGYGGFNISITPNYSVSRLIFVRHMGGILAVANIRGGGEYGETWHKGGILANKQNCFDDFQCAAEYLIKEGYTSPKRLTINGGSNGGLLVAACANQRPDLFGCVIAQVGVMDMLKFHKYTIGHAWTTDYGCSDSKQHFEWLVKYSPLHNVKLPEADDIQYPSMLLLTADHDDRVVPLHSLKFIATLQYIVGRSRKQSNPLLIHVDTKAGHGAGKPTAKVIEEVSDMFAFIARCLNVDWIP
Text: Human prolyl oligopeptidase (PREP, 4308-SE), DPPIV (1180-SE), DPP9 (5419-SE), and DPPII/DPP7 (3438-SE) proteins were purchased from R&D Systems. Human DPP8 (BML-SE527) protein was purchased from Enzo Life Sciences. N-terminal octa-His-tagged human and mouse FAP proteins containing the extracellular domain (residues L26-D760 and L26-D761, respectively) were purified from the conditioned media of transiently-transfected CHO cells, by immobilized metal affinity chromatography (IMAC), followed by size exclusion chromatography (SEC).
as §1

## GP probe: human FGF21 cleavage-site peptide VGPSQG with amine-terminal HyLite Fluor 488 donor and QXL 520 quencher on supplementary C-terminal lysine ({HyLite Fluor 488}-VGPSQGK(QXL 520))
[1]; plasma from Fap heterozygous mice, 3 μM peptide
  probe cleavage activity in plasma: approximately half the activity as that from WT mice
[1]; plasma from WT (Fap+/+) mice, 3 μM peptide
  probe cleavage signal in plasma: strong signal
[1]; plasma from homozygous Fap KO mice, 3 μM peptide
  probe cleavage activity in plasma: even lower, but significant activity
Recombinant human PREP
  cleavage by recombinant human PREP: readily cleaved

## aP probe: FGF21-based peptide VaPSQG (D-alanine at P2) with HyLite Fluor 488 donor and QXL 520 quencher
[1]; Fap KO plasma, plasma diluted 10-fold
  probe cleavage in plasma: no cleavage
[1]; WT plasma, plasma diluted 10-fold
  probe cleavage signal in plasma: clear signal
[1]; heterozygous plasma, plasma diluted 10-fold
  probe cleavage signal in plasma: intermediate
Recombinant human PREP
  cleavage by recombinant human PREP: unable to digest
